Measurements from paper PMC6192259 (Molecular cell, 2017).
Values belong to the binder of their own block, whether it stands above or below them.

Key:
Dim1 = Dim1 (yeast, UniProt P41819 1-318); assay: pull-down
MBP-Dim1 = MBP-Dim1 (yeast, UniProt P41819 1-318); assay: pull-down
MBP-Dim1, sequence (P41819 whole entry): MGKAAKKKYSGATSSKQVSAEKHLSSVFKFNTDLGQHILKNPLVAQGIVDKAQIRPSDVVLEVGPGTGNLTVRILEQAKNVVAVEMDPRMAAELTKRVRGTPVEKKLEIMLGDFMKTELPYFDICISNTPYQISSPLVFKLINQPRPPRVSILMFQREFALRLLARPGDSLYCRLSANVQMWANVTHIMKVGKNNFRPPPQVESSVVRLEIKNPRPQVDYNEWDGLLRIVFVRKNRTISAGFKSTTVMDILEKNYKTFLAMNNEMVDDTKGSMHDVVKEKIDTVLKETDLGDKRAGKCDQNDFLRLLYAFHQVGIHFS

Dim1, sequence (P41819 whole entry): as above

binding result (Dim1): binds
B1: MBP-Fap7 (enzyme, yeast, UniProt Q12055 1-197, looked up)
chain: MEARRYGPNIIVTGTPGCGKSSTCEFLKNKLKDYKYYNISDFAKDNDCFEGYDEGRKSHIVDEDKLLDMLEPLLRQGNSIVDWHVNDVFPERLIDLVVVLRCDNSNLYSRLHARGYHDSKIEENLDAEIMGVVKQDAVESYEPHIVVELQSDTKEDMVSNVSRIVAWEKMWLEQHPDGVTNEYQGPRSDDEDDEDSE

binding result (MBP-Dim1): binds
B2: Fap7 (enzyme, yeast, UniProt Q12055 1-197, looked up)
chain: B1 chain
